# Laboratory results reported in US20200255527.
# Tests used:
# [1] = biological target: FH-AGO2 mono-methylated at K726 (ectopically expressed in MCF-7 cells with LSD1 inhibited) (UniProt Q9UKV8)
# [2] = biological target: FH-AGO2-K726R (UniProt Q9UKV8)
# Chain of FH-AGO2-K726R (Q9UKV8 whole entry K726R): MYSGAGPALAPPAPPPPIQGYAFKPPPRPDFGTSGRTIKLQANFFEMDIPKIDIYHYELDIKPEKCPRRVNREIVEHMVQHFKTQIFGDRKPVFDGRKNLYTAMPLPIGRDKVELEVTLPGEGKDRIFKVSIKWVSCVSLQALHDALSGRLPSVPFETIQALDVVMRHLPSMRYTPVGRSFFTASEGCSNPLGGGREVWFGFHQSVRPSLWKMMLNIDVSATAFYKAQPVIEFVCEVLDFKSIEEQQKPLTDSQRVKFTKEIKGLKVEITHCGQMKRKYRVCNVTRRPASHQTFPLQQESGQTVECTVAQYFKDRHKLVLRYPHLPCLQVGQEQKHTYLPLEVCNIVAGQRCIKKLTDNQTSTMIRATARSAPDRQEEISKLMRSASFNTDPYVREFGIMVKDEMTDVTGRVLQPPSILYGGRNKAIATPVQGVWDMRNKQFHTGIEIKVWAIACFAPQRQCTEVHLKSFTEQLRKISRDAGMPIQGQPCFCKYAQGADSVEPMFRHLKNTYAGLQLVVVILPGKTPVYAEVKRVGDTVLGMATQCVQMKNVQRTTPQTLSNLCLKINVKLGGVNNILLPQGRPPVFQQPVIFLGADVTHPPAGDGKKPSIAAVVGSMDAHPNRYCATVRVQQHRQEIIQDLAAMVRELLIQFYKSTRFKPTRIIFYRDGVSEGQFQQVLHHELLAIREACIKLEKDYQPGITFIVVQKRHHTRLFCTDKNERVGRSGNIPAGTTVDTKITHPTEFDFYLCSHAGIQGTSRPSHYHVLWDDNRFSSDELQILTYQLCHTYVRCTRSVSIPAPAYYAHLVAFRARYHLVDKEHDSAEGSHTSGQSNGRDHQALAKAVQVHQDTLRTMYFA
# Chain of FH-AGO2 mono-methylated at K726 (ectopically expressed in MCF-7 cells with LSD1 inhibited) (Q9UKV8 whole entry): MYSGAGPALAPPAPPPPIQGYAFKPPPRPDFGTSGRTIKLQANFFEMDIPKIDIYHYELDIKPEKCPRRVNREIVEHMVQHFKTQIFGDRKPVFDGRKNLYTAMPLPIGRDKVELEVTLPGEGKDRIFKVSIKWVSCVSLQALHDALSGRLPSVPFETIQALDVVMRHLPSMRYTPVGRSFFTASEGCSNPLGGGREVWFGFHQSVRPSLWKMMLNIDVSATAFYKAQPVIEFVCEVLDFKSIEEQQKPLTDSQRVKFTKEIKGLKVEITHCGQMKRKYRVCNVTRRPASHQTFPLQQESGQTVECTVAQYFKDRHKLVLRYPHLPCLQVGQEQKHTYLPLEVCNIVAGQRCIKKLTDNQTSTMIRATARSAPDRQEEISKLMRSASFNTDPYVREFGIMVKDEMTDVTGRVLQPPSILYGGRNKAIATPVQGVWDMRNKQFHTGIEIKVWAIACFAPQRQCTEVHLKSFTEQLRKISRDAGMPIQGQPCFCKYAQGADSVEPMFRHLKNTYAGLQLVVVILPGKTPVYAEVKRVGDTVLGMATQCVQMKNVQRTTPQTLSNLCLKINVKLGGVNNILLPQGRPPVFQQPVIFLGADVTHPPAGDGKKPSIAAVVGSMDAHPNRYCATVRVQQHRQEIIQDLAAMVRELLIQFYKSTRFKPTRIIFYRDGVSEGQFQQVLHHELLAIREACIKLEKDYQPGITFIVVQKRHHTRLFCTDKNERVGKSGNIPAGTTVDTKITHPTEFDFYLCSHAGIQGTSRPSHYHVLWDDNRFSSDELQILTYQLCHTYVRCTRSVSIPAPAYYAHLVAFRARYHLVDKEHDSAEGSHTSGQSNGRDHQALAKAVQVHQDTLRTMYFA
Substance,K726me1 level on FH-AGO2 in in vitro demethylation assay [1],K726me1 level in in vitro demethylation assay [2]
FH-LSD1-K661A (catalytically compromised LSD1),FH-LSD1 but not FH-LSD1-K661A decreased K726me1 level on FH-AGO2,
FH-LSD1 (Flag-HA-tagged LSD1 stably expressed in MCF-7 cells),FH-LSD1 but not FH-LSD1-K661A decreased K726me1 level on FH-AGO2,had no observable effects on FH-AGO2-K726R
